Data published in patent publication US20200239541A1 (XYPHOS BIOSCIENCES, published 2020).
Numbering of substitutions follows the chain as printed. In names and notes the source's numbering stands.

B1: ULBP2.S1 (phage clone) (ligand)
chain: AAEPHSLSYDITVIPKFRPGPRWCAVQGQVDEKTFLHYDCGNKTVTPVSPLGKKLNVTTAWKAQNPVLREVVDILTEQLWDIQLENYTPKEPLTLQARMSCEQKAEGHSSGSWQFSFDGQIFLLFDSEKRMWTTVHPGARKMKEKWENDKVVATTLYTWSMGDCIGWLEDFLMGMDSTLEPSAGAP
B2: ULBP2.S3 (phage clone) (ligand)
chain: B1 chain with T155K, T158L
B3: ULBP2.S2 (phage clone) (ligand)
chain: B1 chain with T155L, L156M, Y157R, T158I
B4: ULBP3.S1 (phage clone) (ligand)
chain: AAEPHSLWYNFTIIHLPRHGQQWCEVQSQVDQKNFLSYDCGSDKVLSMGHLEEQLYATDAWGKQLEMLREVGQRLRLELADTELEDFTPSGPLTLQVRMSCESEADGYIRGSWQFSFDGRKFLLFDSNNRKWTVVHAGARRMKEKWEKDSGLTTDLIRRSMGDCKSWLRDFLMHRKKRLEPTAP
B5: ULBP3.S2 (phage clone) (ligand)
chain: B4 chain with D155Y, L156F, I157Y, R158L
B6: MICA25.17 (phage clone) (ligand)
chain: EPHSLRYNLTVLSWDGSVQSGFLTEVHLDGQPFLRCDRQKCRAKPQGQWAEDVLGNKTWDRETRDLTGWGTTLLMTLAHIKDQKEGLHSLQEIRVCEIHEDNSTRSSQHFYYDGELFLSQNLETLEWTMPQSSRAQTLAMNVRNFLKEDAMETDIGYRLMRADCLSELRRYLKSGVVLRRTV
B7: MICA25.18 (phage clone) (ligand)
chain: B6 chain with T72F, L74R, I155R, G156S, Y157G, R158L
B8: His-avitag natural NKG2D ectodomain, biotinylated (receptor)
chain: EPHHHHHHGLNDIFEAQKIEWHENSLFNQEVQIPLTESYCGPCPKNWICYKNNCYQFFDESKNWYESQASCMSQNASLLKVYSKEDQDLLKLVKSYHWMGLVHIPTNGSWQWEDGSILSPNLLTIIEMQKGDCALYASSFKGYIENCSTPNTYICMQRTV
notes: also called natural form of the ectodomain of NKG2D
B9: double Y152A plus Y199A mutant NKG2D ectodomain (His-avitag, biotinylated) (receptor)
chain: B8 chain with Y96A, Y143A
notes: not shown: N-terminal His-avitag
B10: Y152A mutant NKG2D ectodomain (His-avitag, biotinylated) (receptor)
chain: B8 chain with Y96A
notes: also called Y152A non-natural NKG2D receptor; not shown: N-terminal His-avitag
B11: Y199A mutant NKG2D ectodomain (His-avitag, biotinylated) (receptor)
chain: B8 chain with Y143A
notes: as for B9
B12: α1-α2 variant 15 (His-tagged, with attached heterologous polypeptide) (ligand)
chain: EPHSLRYNLTVLSWDGSVQSGFLTEVHLDGQPFLRCDRQKCRAKPQGQWAEDVLGNKTWDRETRDLTGWGKDLRMTLAHIKDQKEGLHSLQEIRVCEIHEDNSTRSSQHFYYDGELFLSQNLETNEWTMPQSSRAQTLAMNVRNFLKEDAMETDTHYHAMRADCLQELRRYLKSGVVLRRTVPPMVQVTRSEASGGSGDRVTITCRASQDVSTAVAWYQQKPGKAPKLLIYSASFLYSGVPSRFSGSGSGTDFTLTISSLQPEDFATYYCQQSYTTPPTFGQGTKVEIKGGSSRSSSSGGGGSGGGGEVQLVESGGGLVQPGGSLRLSCAASGFTFTSTGISWVRQAPGKGLEWVGRIYPTNGSTNYADSVKGRFTISADTSKNTAYLQMNSLRAEDTAVYYCARTYGIYDLYVDYTEYVMDYWGQGTLVTVSSGGSSRSSSSGGGGSGGGGDIQMTQSPSSLSASGGSGQITVTCRASGFYPWNITLSWRQDGVSLSHDTQQWGDVLPDGQGTYQTWVATRISQGEEQRFTCYMEHSGQHSTHPVPSGKGSHHHHHH
B13: WED-MICA α1-α2 domain (N69W, K152E, K154D) (ligand)
chain: B12 chain with N125K, R161H
notes: also called WED-α1-α2; MICwed
B14: WT α1-α2 domain (soluble wild-type MICA, titrated) (ligand, UniProt Q29983 24-204, looked up)
chain: EPHSLRYNLTVLSWDGSVQSGFLTEVHLDGQPFLRCDRQKCRAKPQGQWAEDVLGNKTWDRETRDLTGNGKDLRMTLAHIKDQKEGLHSLQEIRVCEIHEDNSTRSSQHFYYDGELFLSQNLETKEWTMPQSSRAQTLAMNVRNFLKEDAMKTKTHYHAMHADCLQELRRYLKSGVVLRRT
notes: domain: α1-α2; also called WT MICA; WT NKG2DL

Target: T1, Y152A NKG2D-Fc (Example 5) (human)
T1 construct: also called non-natural Y152A NKG2D; not shown: Fc
T1 chain: B8 chain with Y96A
Assay: phage ELISA

Which “fold selective binding to Y152A NKG2D over natural NKG2D” value (“fold selective binding to Y152A NKG2D” for short) does the source give for B1 here?
Its value is > 10 fold.

Which “fold selective binding to Y152A NKG2D” value does the source give for B2 here?
Its value is > 10 fold.

How did the “fold selective binding to Y152A NKG2D” value turn out when B3 was run?
The value was > 10 fold.

For B4, which “fold selective binding to Y152A NKG2D” value is on record?
The value was > 10 fold.

Which “fold selective binding to Y152A NKG2D” value does the source give for B5 here?
Its value is > 10 fold.

How did the “fold selective binding to Y152A NKG2D” value turn out when B6 was run?
The value was > 10 fold.

Which “fold selective binding to Y152A NKG2D” value does the source give for B7 here?
Its value is > 10 fold.

Target: T2, MICB-Fc (R&D Systems) (human, UniProt Q29980 23-298)
T2 construct: not shown: Fc of the bought reagent
T2 sequence (looked up): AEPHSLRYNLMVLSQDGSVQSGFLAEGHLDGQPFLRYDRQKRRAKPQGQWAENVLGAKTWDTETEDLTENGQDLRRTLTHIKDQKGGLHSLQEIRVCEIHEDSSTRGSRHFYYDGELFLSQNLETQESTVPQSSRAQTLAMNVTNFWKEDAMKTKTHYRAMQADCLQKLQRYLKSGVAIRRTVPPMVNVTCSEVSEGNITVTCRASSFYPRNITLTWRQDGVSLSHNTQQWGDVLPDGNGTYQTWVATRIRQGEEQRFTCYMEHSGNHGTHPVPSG
Assay: ELISA, ligand-Fc coated, biotinylated NKG2D titrated
Procedure: (§1) In addition to purifying the above 3 Fc-fusion proteins NKG2D ligand-Fc fusion proteins MICB-Fc, ULBP1-Fc, ULBP2-Fc, ULBP3-Fc, and ULBP4-Fc were purchased from R&D Systems, Inc. (Minneapolis, Minn.). Binding of the different α1-α2 domain-Fc fusions to both natural and non-natural NKG2D ectodomain proteins was analyzed using a plate-based ELISA method. All of the natural and non-natural α1-α2 domain-Fc fusions were coated overnight at 4° C. onto separate wells of Maxisorp 96 well plates using a coating concentration of 2 μg/ml in phosphate-buffered saline (PBS). The plates were washed 3-times in PBS/0.05% Tween20 at 20-22° C., and blocked with 0.5% bovine serum albumin for 2 hours. The biotinylated natural and non-natural NKG2D receptor proteins were titrated against the plate-bound NKG2D ligands for 2 hours at 20-22° C., washed 3 times with PBS/0.05% Tween20 at 20-22° C., and the bound NKG2D proteins subsequently detected using a streptavidin-HRP secondary detection step and developed with 1-Step Ultra TMB Elisa.

Does B8 bind?
Result: binds

Does B9 bind?
Result: no binding

Does B10 bind?
Result: no binding

Does B11 bind?
Result: no binding

Target: T3, ULBP3-Fc (R&D Systems) (human, UniProt Q9BZM4 30-217)
T3 construct: not shown: Fc of the bought reagent
T3 sequence (looked up): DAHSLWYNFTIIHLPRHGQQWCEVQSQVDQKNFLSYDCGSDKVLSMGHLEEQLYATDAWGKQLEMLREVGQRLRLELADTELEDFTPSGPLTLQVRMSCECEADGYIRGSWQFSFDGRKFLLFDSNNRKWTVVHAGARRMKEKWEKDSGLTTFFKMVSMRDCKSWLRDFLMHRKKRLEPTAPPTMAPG
Assay: as above
Procedure: as §1

Does B8 bind?
Result: binds

Does B9 bind?
Result: no binding

Does B10 bind?
Result: no binding

Does B11 bind?
Result: no binding

Target: T4, ULBP1-Fc (R&D Systems) (human, UniProt Q9BZM6 26-216)
T4 construct: not shown: Fc of the bought reagent
T4 sequence (looked up): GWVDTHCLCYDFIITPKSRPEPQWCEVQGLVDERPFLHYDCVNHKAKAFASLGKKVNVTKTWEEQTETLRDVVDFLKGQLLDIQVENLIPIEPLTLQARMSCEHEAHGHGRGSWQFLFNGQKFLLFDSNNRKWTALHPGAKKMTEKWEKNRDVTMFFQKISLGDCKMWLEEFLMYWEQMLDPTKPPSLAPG
Assay: as above
Procedure: as §1

Does B8 bind?
Result: binds

Does B9 bind?
Result: no binding

Does B10 bind?
Result: no binding

Does B11 bind?
Result: no binding

Target: T5, ULBP2-Fc (R&D Systems) (human, UniProt Q9BZM5 26-217)
T5 construct: not shown: Fc of the bought reagent
T5 sequence (looked up): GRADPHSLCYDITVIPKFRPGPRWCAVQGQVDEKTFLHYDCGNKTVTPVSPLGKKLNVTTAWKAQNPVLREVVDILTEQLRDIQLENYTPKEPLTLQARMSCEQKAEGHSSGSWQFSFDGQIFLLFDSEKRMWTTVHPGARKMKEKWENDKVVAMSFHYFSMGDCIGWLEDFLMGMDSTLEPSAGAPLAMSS
Assay: as above
Procedure: as §1

Does B8 bind?
Result: binds

Does B9 bind?
Result: no binding

Does B10 bind?
Result: no binding

Does B11 bind?
Result: no binding

Target: T6, ULBP4-Fc (R&D Systems) (human, UniProt Q8TD07 31-225)
T6 construct: not shown: Fc of the bought reagent
T6 sequence (looked up): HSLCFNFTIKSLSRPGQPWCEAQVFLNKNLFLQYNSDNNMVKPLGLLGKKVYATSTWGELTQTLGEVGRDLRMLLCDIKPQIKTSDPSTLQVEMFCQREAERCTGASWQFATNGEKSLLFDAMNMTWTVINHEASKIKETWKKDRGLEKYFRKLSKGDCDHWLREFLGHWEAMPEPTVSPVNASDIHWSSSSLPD
Assay: as above
Procedure: as §1

Does B8 bind?
Result: binds

Does B9 bind?
Result: no binding

Does B10 bind?
Result: no binding

Does B11 bind?
Result: no binding

Target: T7, human NKG2D-Fc (human, UniProt P26718 78-216)
T7 construct: also called natural NKG2D-Fc; not shown: Fc
T7 sequence (looked up): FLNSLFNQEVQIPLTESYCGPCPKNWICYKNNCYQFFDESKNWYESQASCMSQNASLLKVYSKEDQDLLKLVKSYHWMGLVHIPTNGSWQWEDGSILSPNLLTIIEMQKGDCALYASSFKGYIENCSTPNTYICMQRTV
Assay: competition ELISA vs coated WT sMICA
Excerpt: (§2) To the NKG2DLs in the above example, we directly attached heterologous molecules such as a polypeptide to each of these 4 modified α1-α2 NKG2DLs using a linker peptide. Four His-tagged proteins (SEQ ID NOs.: 25-28) consisting of modified NKG2DLs with attached heterologous molecules were expressed in insect cells and purified to characterize their NKG2D binding affinities and kinetic binding parameters. Using a competitive binding ELISA, we determined the relative NKG2D binding affinities of the 4 modified α1-α2 variants.

For B12, which “fold better binding than WT NKG2DL” value is on record?
Its value is 11 fold.

Target: T7, human NKG2D-Fc
Assay: competition ELISA vs coated WT sMICA, 2 nM human NKG2D-Fc
Excerpt: as §2

Which IC50 does the source give for B13 here?
Its IC50 is 4.4 nM.

For B12, which IC50 is on record?
Its IC50 is 1.7 nM.

How did the IC50 turn out when B14 was run?
The IC50 was 19.4 nM.

Target: T8, biotinylated human NKG2D (Example 1) (human, UniProt P26718 78-216)
T8 construct: also called recombinant biotinylated NKG2D
T8 sequence (looked up): T7 sequence (looked up)
Assay: BLI (Octet), biotinylated human NKG2D coated, 100 nM analyte

Which results are given for B13?
koff: 0.0017 s⁻¹; kon: 290000 M⁻¹ s⁻¹

What does the source list for B12?
koff: 0.00011 s⁻¹; kon: 70000 M⁻¹ s⁻¹

Target: T8, biotinylated human NKG2D (Example 1)
Assay: BLI (Octet), Kd = kOFF/kON

B13 was tested. Which Kd did it give?
The Kd was 5.9 nM.

With B12 as the binder, how does the Kd read?
Its Kd is 1.5 nM.
